Measured values as given in the RNAGym collection of RNA variant scans (doi:10.1093/nar/gkz1192).

B1: CPEB3 Ribozyme (parent)
chain: UAACAGGGGGCCACAGCAGAAGCGUUCACGUCGCAGCCCCUGUCAGAUUCUGGUGAAUCUGCGAAUUCUGCUGUAUAUCUC

Variants of: B1
Test: self-cleavage, relative activity (ratio to wild type); higher = more cleavage; in vitro, sequencing
How it was run: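 CPEB3 self-cleaving ribozyme mutant libraries were made by rounds of error-prone PCR, barcoded, and transcribed in vitro with T7 RNA polymerase for 5 hours at 37°C. Cleavage occurred during transcription and a 15 min DNase I step before EDTA stop. RNAs were reverse transcribed with template switching and Illumina-sequenced, with DNA sequencing mapping barcodes to variants. Relative activity is the variant's cleaved/total read fraction divided by wild type's (minimum 5 reads), averaged across three batches.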

Variant | self-cleavage
UAGCAGGGGGCCACAGCAGAAGCGUUCACGUCGCAGCCCCUGUCAGAUUCUGGUGAAUCUGCGAAUUCUGGUGUAUAUCUC [A3G C71G] | 0.57
UAGCAGGGGGCCACAGCAGAAGCGUUCACGUCGCAGCCCCUGUCAGAUUCUGGUGAAUCUGCGAAUUCUGAUGUAUAUCUC [A3G C71A] | 0.27
UAGCAGGGGGCCACAGCAGAAGCGUUCACGUCGCAGCCCCUGUCAGAUUCUGGUGAAUCUGCGAAUUCUGUUGUAUAUCUC [A3G C71U] | 0.64
UAGCAGGGGGCCACAGCAGAAGCGUUCACGUCGCAGACCCUGUCAGAUUCUGGUGAAUCUGCGAAUUCUGCUGUAUAUCUC [A3G C37A] | 0.36
UAGCAGGGGGCCACAGCAGAAGCGUUCACGUCGCAGUCCCUGUCAGAUUCUGGUGAAUCUGCGAAUUCUGCUGUAUAUCUC [A3G C37U] | 0.85
UAGCAGGGGGCCACAGCAGAAGCGUUCACGUCGCAGCCCCUGUCAGAUUCUGGUGAAUCUGCGAAUUCUGCUGUAUAUCUG [A3G C81G] | 1.17
UAGCAGGGGGCCACAGCAGAAGCGUUCACGUCGCAGCGCCUGUCAGAUUCUGGUGAAUCUGCGAAUUCUGCUGUAUAUCUC [A3G C38G] | 1.02
UAGCAGGGGGCCACAGCAGAAGCGUUCACGUCGCAGCUCCUGUCAGAUUCUGGUGAAUCUGCGAAUUCUGCUGUAUAUCUC [A3G C38U] | 0.83
UAGCAGGAGGCCACAGCAGAAGCGUUCACGUCGCAGCCCCUGUCAGAUUCUGGUGAAUCUGCGAAUUCUGCUGUAUAUCUC [A3G G8A] | 0.37
UAGCAGGGGGCCACAGCAGAAGCGUUCACGUCGCAGCCCCUGUCAGAUUCUGGUGAAUCUGGGAAUUCUGCUGUAUAUCUC [A3G C62G] | 0.32
UAGCAGGGGGCCACAGCAGAAGCGUUCACGUCGCAGCCCCUGUCAGAUUCUGGUGAAUCUGUGAAUUCUGCUGUAUAUCUC [A3G C62U] | 0.39
UAGCAGGGGGCCACAGCAGAAGCGUUCACGUCGCAGCCCCUGUCAGAUUCUGGUGAAUCUGAGAAUUCUGCUGUAUAUCUC [A3G C62A] | 0.59
UAGCAGGGGGGCACAGCAGAAGCGUUCACGUCGCAGCCCCUGUCAGAUUCUGGUGAAUCUGCGAAUUCUGCUGUAUAUCUC [A3G C11G] | 0.54
UAGCAGGGGGUCACAGCAGAAGCGUUCACGUCGCAGCCCCUGUCAGAUUCUGGUGAAUCUGCGAAUUCUGCUGUAUAUCUC [A3G C11U] | 0.51
UAGCAGGGGGACACAGCAGAAGCGUUCACGUCGCAGCCCCUGUCAGAUUCUGGUGAAUCUGCGAAUUCUGCUGUAUAUCUC [A3G C11A] | 0.32
UAGCAGGGGGCCACAGCAGAAGGGUUCACGUCGCAGCCCCUGUCAGAUUCUGGUGAAUCUGCGAAUUCUGCUGUAUAUCUC [A3G C23G] | 0.33
UAGCAGGGGGCCACAGCAGAAGUGUUCACGUCGCAGCCCCUGUCAGAUUCUGGUGAAUCUGCGAAUUCUGCUGUAUAUCUC [A3G C23U] | 0.38
UAGCAGGGGGCCACAGCAGAAGAGUUCACGUCGCAGCCCCUGUCAGAUUCUGGUGAAUCUGCGAAUUCUGCUGUAUAUCUC [A3G C23A] | 0.22
UAGCAGGGGGCCACAGCAGAAGCGUUCACGUCGUAGCCCCUGUCAGAUUCUGGUGAAUCUGCGAAUUCUGCUGUAUAUCUC [A3G C34U] | 0.25
UAGCAGGGGGCCACAGCAGAAGCGUUCACGUCGAAGCCCCUGUCAGAUUCUGGUGAAUCUGCGAAUUCUGCUGUAUAUCUC [A3G C34A] | 0.2
UAGCAGGGGGCCACAGCAGAAGCGUUCACGUCGGAGCCCCUGUCAGAUUCUGGUGAAUCUGCGAAUUCUGCUGUAUAUCUC [A3G C34G] | 0.43
UAGCAGGGGGCAACAGCAGAAGCGUUCACGUCGCAGCCCCUGUCAGAUUCUGGUGAAUCUGCGAAUUCUGCUGUAUAUCUC [A3G C12A] | 1.16
UAGCAGGGGGCUACAGCAGAAGCGUUCACGUCGCAGCCCCUGUCAGAUUCUGGUGAAUCUGCGAAUUCUGCUGUAUAUCUC [A3G C12U] | 1.22

Variant | self-cleavage
UAGCAGGGGGCCAUAGCAGAAGCGUUCACGUCGCAGCCCCUGUCAGAUUCUGGUGAAUCUGCGAAUUCUGCUGUAUAUCUC [A3G C14U] | 1.12
UAGCAGGGGGCCAAAGCAGAAGCGUUCACGUCGCAGCCCCUGUCAGAUUCUGGUGAAUCUGCGAAUUCUGCUGUAUAUCUC [A3G C14A] | 1.13
UAGCAGGGGGCCACAGCAGAAGCGUUCACGUCGCAGCCCCUGUCAGAUUCUGGUGAAUCUGCGAAUUCUGCUGUAUUUCUC [A3G A77U] | 0.99
UAGCAGGGGGCCACAGCAGAAGCGUUCACGUCGCAGCCCCUGUCAGAUUCUGGUGAAUCUGCGAAUUCUGCUGUAUCUCUC [A3G A77C] | 1.03
UAGCAGGGGGCCACAGCAGAAGCGUUCACGUCGCAGCCCCUGUCAGAUUCUGGUGAAUCUGCGAAUUCUGCUGUAUGUCUC [A3G A77G] | 1.03
UAGCAGGGGGCCACAGCAGAAGCGUUCACGUCGCAGCCCCUGUCAGAUUCUGGUGAAUCUGCGAAUUCUGCUGUAUAUUUC [A3G C79U] | 1
UAGCAGGGGGCCACAGCAGAAGCGUUCACGUCGCAGCCCCUGUCAGAUUCUGGUGAAUCUGCGAAUUCUGCUGUAUAUAUC [A3G C79A] | 1.05
UAGCAGGGGGCCACAGCAGAAGCGUUCACGUCGCAGCCCCUGUCAGAUUCUGGUGAAUAUGCGAAUUCUGCUGUAUAUCUC [A3G C59A] | 0.62
UAGCAGGGGGCCACAGCAGAAGCGUUCACGUCGCAGCCCCUGUCAGAUUCUGGUGAAUUUGCGAAUUCUGCUGUAUAUCUC [A3G C59U] | 0.74
UAGCAGGGGGCCACAGCAGAAGCGUUCAAGUCGCAGCCCCUGUCAGAUUCUGGUGAAUCUGCGAAUUCUGCUGUAUAUCUC [A3G C29A] | 0.58
UAGCAGGGGGCCACAGCAGAAGCGUUCAUGUCGCAGCCCCUGUCAGAUUCUGGUGAAUCUGCGAAUUCUGCUGUAUAUCUC [A3G C29U] | 0.59
UAGCAGGGGGCCACAGCAGAAGCGUUCAGGUCGCAGCCCCUGUCAGAUUCUGGUGAAUCUGCGAAUUCUGCUGUAUAUCUC [A3G C29G] | 0.43
UAGCACGGGGCCACAGCAGAAGCGUUCACGUCGCAGCCCCUGUCAGAUUCUGGUGAAUCUGCGAAUUCUGCUGUAUAUCUC [A3G G6C] | 0.77
UAGCAUGGGGCCACAGCAGAAGCGUUCACGUCGCAGCCCCUGUCAGAUUCUGGUGAAUCUGCGAAUUCUGCUGUAUAUCUC [A3G G6U] | 0.57
UAGCAAGGGGCCACAGCAGAAGCGUUCACGUCGCAGCCCCUGUCAGAUUCUGGUGAAUCUGCGAAUUCUGCUGUAUAUCUC [A3G G6A] | 0.59
UAGCAGGGGGCCACAGCAGAAGCGUUCACGUCGCAGCCCCUGUCAGAUUUUGGUGAAUCUGCGAAUUCUGCUGUAUAUCUC [A3G C50U] | 0.94
UAGCAGGGGGCCACAGCAGAAGCGUUCACGUCGCAGCCCCUGUCAGAUUAUGGUGAAUCUGCGAAUUCUGCUGUAUAUCUC [A3G C50A] | 0.82
UAGCAGGGGGCCACAGCAGAAGCGUUCACGUCGCAGCCCCUGUCAGAUUGUGGUGAAUCUGCGAAUUCUGCUGUAUAUCUC [A3G C50G] | 0.8
UAGCAGGGGGCCACAGCAGAAGCGUUCACGUCGCAGCCCCUGUCAGAUUCUGGUGAAUCUGCGAAUUUUGCUGUAUAUCUC [A3G C68U] | 0.79
UAGCAGGGGGCCACAGCAGAAGCGUUCACGUCGCAGCCCCUGUCAGAUUCUGGUGAAUCUGCGAAUUAUGCUGUAUAUCUC [A3G C68A] | 0.46
UAGCAGGGGGCCACAGCAGAAGCGUUCACGUCGCAGCCCCUGUCAGAUUCUGGUGAAUCUGCGAAUUGUGCUGUAUAUCUC [A3G C68G] | 0.47
UAGCAGGGGGCCACAGCAGAAGCGUUCACGUCGCAGCCCAUGUCAGAUUCUGGUGAAUCUGCGAAUUCUGCUGUAUAUCUC [A3G C40A] | 0.32
UAGCAGGGGGCCACAGCAGAAGCGUUCACGUCGCAGCCCUUGUCAGAUUCUGGUGAAUCUGCGAAUUCUGCUGUAUAUCUC [A3G C40U] | 0.64

Variant | self-cleavage
UAGCAGGGGGCCACAGCAGAAGCGUUCACGUCGCAGCCCGUGUCAGAUUCUGGUGAAUCUGCGAAUUCUGCUGUAUAUCUC [A3G C40G] | 0.5
UAGCAGGGGGCCACAGCAGAAGCGUUCACGUCGCAGCCCCUGUAAGAUUCUGGUGAAUCUGCGAAUUCUGCUGUAUAUCUC [A3G C44A] | 0.42
UAGCAGGGGGCCACAGCAGAAGCGUUCACGUCGCAGCCUCUGUCAGAUUCUGGUGAAUCUGCGAAUUCUGCUGUAUAUCUC [A3G C39U] | 0.64
UAGCAGGGGGCCACAGCAGAAGCGUUCACGUCGCAGCCACUGUCAGAUUCUGGUGAAUCUGCGAAUUCUGCUGUAUAUCUC [A3G C39A] | 0.05
UAGCAGGGGGCCACAGCAGAAGCGUUCACGUCGCAGCCGCUGUCAGAUUCUGGUGAAUCUGCGAAUUCUGCUGUAUAUCUC [A3G C39G] | 0.34
UAGCAGGGGGCCACAGCAGAAGCGUUCACGUAGCAGCCCCUGUCAGAUUCUGGUGAAUCUGCGAAUUCUGCUGUAUAUCUC [A3G C32A] | 0.14
UAGCAGGGGGCCACAGCAGAAGCGUUCACGUUGCAGCCCCUGUCAGAUUCUGGUGAAUCUGCGAAUUCUGCUGUAUAUCUC [A3G C32U] | 0.45
UAGCAGGGGGCCACAGCAGAAGCGUUCACGUGGCAGCCCCUGUCAGAUUCUGGUGAAUCUGCGAAUUCUGCUGUAUAUCUC [A3G C32G] | 0.17
UAGCAGGGGGCCACAGCAGAAGCGUUGACGUCGCAGCCCCUGUCAGAUUCUGGUGAAUCUGCGAAUUCUGCUGUAUAUCUC [A3G C27G] | 0.43
UAGCAGGGGGCCACAGCAGAAGCGUUAACGUCGCAGCCCCUGUCAGAUUCUGGUGAAUCUGCGAAUUCUGCUGUAUAUCUC [A3G C27A] | 0.45
UAGCAGGGGGCCACAGCAGAAGCGUUUACGUCGCAGCCCCUGUCAGAUUCUGGUGAAUCUGCGAAUUCUGCUGUAUAUCUC [A3G C27U] | 0.53
UAGCAGGGGGCCACAGCAGAAGCGUUCACGUCGCAGCCCCUGUCAGAUUCUGGUGAAUCUGCGAAUUCUGCUGUUUAUCUC [A3G A75U] | 1.12
UAGCAGGGGGCCACAGCAGAAGCGUUCACGUCGCAGCCCCUGUCAGAUUCUGGUGAAUCUGCGAAUUCUGCUGUCUAUCUC [A3G A75C] | 1.07
UAGCAGGGGGCCACAGCAGAAGCGUUCACGUCGCAGCCCCUGUCAGAUUCUGGUGAAUCUGCGAAUUCUGCUGUGUAUCUC [A3G A75G] | 1
UAGCAGUGGGCCACAGCAGAAGCGUUCACGUCGCAGCCCCUGUCAGAUUCUGGUGAAUCUGCGAAUUCUGCUGUAUAUCUC [A3G G7U] | 0.45
UAGCAGAGGGCCACAGCAGAAGCGUUCACGUCGCAGCCCCUGUCAGAUUCUGGUGAAUCUGCGAAUUCUGCUGUAUAUCUC [A3G G7A] | 0.47
UAGGAGGGGGCCACAGCAGAAGCGUUCACGUCGCAGCCCCUGUCAGAUUCUGGUGAAUCUGCGAAUUCUGCUGUAUAUCUC [A3G C4G] | 1.15
UAGAAGGGGGCCACAGCAGAAGCGUUCACGUCGCAGCCCCUGUCAGAUUCUGGUGAAUCUGCGAAUUCUGCUGUAUAUCUC [A3G C4A] | 1.17
UAGUAGGGGGCCACAGCAGAAGCGUUCACGUCGCAGCCCCUGUCAGAUUCUGGUGAAUCUGCGAAUUCUGCUGUAUAUCUC [A3G C4U] | 1.11
UAGCAGGGGGCCACAGUAGAAGCGUUCACGUCGCAGCCCCUGUCAGAUUCUGGUGAAUCUGCGAAUUCUGCUGUAUAUCUC [A3G C17U] | 0.85
UAGCAGGGGGCCACAGGAGAAGCGUUCACGUCGCAGCCCCUGUCAGAUUCUGGUGAAUCUGCGAAUUCUGCUGUAUAUCUC [A3G C17G] | 0.55
UAGCAGGGGGCCACAGAAGAAGCGUUCACGUCGCAGCCCCUGUCAGAUUCUGGUGAAUCUGCGAAUUCUGCUGUAUAUCUC [A3G C17A] | 0.33
